Biological target: SMC3 (mouse (endogenous in mouse ES cells), UniProt Q9CW03 1-1217)
Assay: co-IP

Sequence of SMC3 (Q9CW03 whole entry): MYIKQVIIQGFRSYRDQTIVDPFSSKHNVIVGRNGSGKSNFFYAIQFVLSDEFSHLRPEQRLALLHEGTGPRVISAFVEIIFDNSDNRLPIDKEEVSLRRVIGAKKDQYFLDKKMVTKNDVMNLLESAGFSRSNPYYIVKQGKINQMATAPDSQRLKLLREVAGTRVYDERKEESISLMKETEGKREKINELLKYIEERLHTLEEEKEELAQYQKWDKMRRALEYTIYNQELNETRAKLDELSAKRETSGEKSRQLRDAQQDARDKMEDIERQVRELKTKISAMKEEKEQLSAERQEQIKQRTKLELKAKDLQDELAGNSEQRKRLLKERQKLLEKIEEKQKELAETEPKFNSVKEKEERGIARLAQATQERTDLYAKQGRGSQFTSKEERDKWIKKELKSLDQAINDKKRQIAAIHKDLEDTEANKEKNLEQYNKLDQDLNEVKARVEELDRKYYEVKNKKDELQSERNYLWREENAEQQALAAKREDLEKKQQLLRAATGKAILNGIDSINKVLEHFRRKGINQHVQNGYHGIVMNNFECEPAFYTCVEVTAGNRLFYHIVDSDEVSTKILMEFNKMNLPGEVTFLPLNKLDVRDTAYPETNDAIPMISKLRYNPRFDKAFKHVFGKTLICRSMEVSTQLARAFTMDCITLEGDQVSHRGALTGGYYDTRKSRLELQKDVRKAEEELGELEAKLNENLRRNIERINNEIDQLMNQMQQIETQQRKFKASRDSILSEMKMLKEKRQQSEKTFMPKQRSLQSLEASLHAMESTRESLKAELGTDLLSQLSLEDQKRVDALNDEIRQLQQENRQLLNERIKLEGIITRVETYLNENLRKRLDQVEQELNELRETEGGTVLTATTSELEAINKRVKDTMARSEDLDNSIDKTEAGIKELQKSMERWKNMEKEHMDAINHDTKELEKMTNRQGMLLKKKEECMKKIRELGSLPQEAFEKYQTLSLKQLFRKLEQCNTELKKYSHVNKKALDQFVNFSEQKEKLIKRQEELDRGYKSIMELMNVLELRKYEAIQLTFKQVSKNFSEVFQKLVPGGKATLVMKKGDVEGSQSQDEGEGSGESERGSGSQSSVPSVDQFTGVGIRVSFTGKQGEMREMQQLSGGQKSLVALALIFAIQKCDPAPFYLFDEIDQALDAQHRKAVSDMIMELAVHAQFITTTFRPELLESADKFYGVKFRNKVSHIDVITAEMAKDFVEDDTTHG

B1: REC8 (natural protein)
chain: MFYYPNVLQRHTGCFATIWLAATRGSRLVKREYLNVNVVKTCEEILNYVLVRVQPPVAGLPRPRFSLYLSAQLQIGVIRVYFQQCQYLVEDIQHILEHLHRAQLRIRIDMEEADLPSLLLPNCLAMMETLEDAPEPFFGKMSVDPRLPSPFDIPQIRHLLEAATPEKTRKETLPEATPDPRKPDRTLATVQSPEVITLQEAEPIRMLQIEGEQDLPEISRGDLELLIAEKDDAILLEERQRGRLLRQRRASLPLDESREEPRALEGAGLVSALSPPAPAQVEGIQEALPGQVFPPEVQKMTGWEPGALLTEVTPPQELRLPAPPSTEKRLPSLQRPLPRRHRRRQLLFWDKETQISREKFEEQLQTGAHCWEYPVAQPPKRMLTSPAELFRTPTLSGWLPPELLGLWTHCAQVPQRMLRQRPQLETEETVEEERAADEEERRKTEALSEIEVLREAQEPSGPLMLSSELSLEAAEDEKSRTSLIPPEWWAWSEEGQPEPPALPMLPELPEVPMEMPPRPELSSEAVLRAVALKLQANKELDFSSLVPPLSPRKLASRVFYLLLVLSTQKILLVEQQKPYGPLLIRPGPKFP
fold change of co-IP with siRad21 against siCtrl: 1.92 fold

— publication PMC11929898 (Scientific Reports, 2025)
